Results reported in the supplement of paper PMC9112550, “Optimization of the antimicrobial peptide Bac7 by deep mutational scanning” (BMC Biology, 2022).
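Further: peptides expressed intracellularly from a pBAD plasmid library in pooled LB shake-flask culture, induced with 0.3% L-arabinose, DNA abundance read by NGS, three biological replicates, DESeq2 with apeglm shrinkage.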

The sequences below were run on Escherichia coli TOP10 (assay: shrunken log2 fold change of peptide-encoding DNA abundance (4.5 h post-induction vs induction); higher = less antimicrobial activity (less host growth inhibition)). Settings: time post-induction: 4.5 h; library: site-saturation at positions 5, 18, 19, 20.
RRIRGRPPRLPRPRPRPFRVPRP was tested, and the “shrunken log2 fold change” value was -0.149. For RRIRSRPPRLPRPRPRPWDYPRP, the “shrunken log2 fold change” value was 0.0318. In the case of RRIRDRPPRLPRPRPRPARIPRP, the “shrunken log2 fold change” value is reported as 0.136. RRIRWRPPRLPRPRPRPDIKPRP was tested, and the “shrunken log2 fold change” value was -0.323. For RRIRDRPPRLPRPRPRPHAQPRP, the “shrunken log2 fold change” value was -0.0623. For RRIRPRPPRLPRPRPRPTYWPRP, the “shrunken log2 fold change” value was -0.00192. In the case of RRIRPRPPRLPRPRPRPMVGPRP, the “shrunken log2 fold change” value is reported as 0.265. With RRIRTRPPRLPRPRPRPMCKPRP the “shrunken log2 fold change” value was -0.0839. With RRIRFRPPRLPRPRPRPMDQPRP the “shrunken log2 fold change” value was -0.247. RRIRNRPPRLPRPRPRPNLQPRP was tested, and the “shrunken log2 fold change” value was -0.446. With RRIRPRPPRLPRPRPRPFTTPRP the “shrunken log2 fold change” value was -0.0187. RRIRNRPPRLPRPRPRPVDDPRP was tested, and the “shrunken log2 fold change” value was 0.0318. In the case of RRIRARPPRLPRPRPRPFENPRP, the “shrunken log2 fold change” value is reported as 0.166. In the case of RRIRTRPPRLPRPRPRPPEFPRP, the “shrunken log2 fold change” value is reported as -0.231. RRIRERPPRLPRPRPRPNGGPRP was tested, and the “shrunken log2 fold change” value was -0.0469. In the case of RRIRCRPPRLPRPRPRPHTAPRP, the “shrunken log2 fold change” value is reported as -0.457. With RRIRFRPPRLPRPRPRPMMVPRP the “shrunken log2 fold change” value was -0.112. RRIRMRPPRLPRPRPRPAKYPRP was tested, and the “shrunken log2 fold change” value was -0.111. With RRIRWRPPRLPRPRPRPAISPRP the “shrunken log2 fold change” value was -0.00844. With RRIRERPPRLPRPRPRPEYDPRP the “shrunken log2 fold change” value was -0.00663. For RRIRQRPPRLPRPRPRPVWLPRP, the “shrunken log2 fold change” value was 0.2. RRIRSRPPRLPRPRPRPMTNPRP was tested, and the “shrunken log2 fold change” value was -0.309. In the case of RRIRVRPPRLPRPRPRPILLPRP, the “shrunken log2 fold change” value is reported as -0.815. For RRIRIRPPRLPRPRPRPSAVPRP, the “shrunken log2 fold change” value was -0.306. RRIRSRPPRLPRPRPRPASVPRP was tested, and the “shrunken log2 fold change” value was 0.377. With RRIRGRPPRLPRPRPRPYGFPRP the “shrunken log2 fold change” value was -0.0296. For RRIRMRPPRLPRPRPRPFLIPRP, the “shrunken log2 fold change” value was -0.34. In the case of RRIRKRPPRLPRPRPRPERMPRP, the “shrunken log2 fold change” value is reported as 0.0818. RRIRSRPPRLPRPRPRPPWMPRP was tested, and the “shrunken log2 fold change” value was 0.167. In the case of RRIRHRPPRLPRPRPRPCADPRP, the “shrunken log2 fold change” value is reported as -0.12. In the case of RRIRMRPPRLPRPRPRPYHTPRP, the “shrunken log2 fold change” value is reported as -1.11. For RRIRWRPPRLPRPRPRPFYTPRP, the “shrunken log2 fold change” value was -0.575. RRIRIRPPRLPRPRPRPVHAPRP was tested, and the “shrunken log2 fold change” value was 0.0769. RRIRFRPPRLPRPRPRPGSIPRP was tested, and the “shrunken log2 fold change” value was -0.235. With RRIRMRPPRLPRPRPRPMKLPRP the “shrunken log2 fold change” value was -0.13. With RRIRPRPPRLPRPRPRPVACPRP the “shrunken log2 fold change” value was -0.0233. With RRIRERPPRLPRPRPRPTGKPRP the “shrunken log2 fold change” value was -0.0509. In the case of RRIRDRPPRLPRPRPRPGVRPRP, the “shrunken log2 fold change” value is reported as 0.502. With RRIRQRPPRLPRPRPRPWQAPRP the “shrunken log2 fold change” value was 0.124. RRIRMRPPRLPRPRPRPDPNPRP was tested, and the “shrunken log2 fold change” value was 0.0963. RRIRKRPPRLPRPRPRPSYHPRP was tested, and the “shrunken log2 fold change” value was 2.31. RRIRCRPPRLPRPRPRPMKNPRP was tested, and the “shrunken log2 fold change” value was -0.128. In the case of RRIRMRPPRLPRPRPRPHCHPRP, the “shrunken log2 fold change” value is reported as -0.137. For RRIRLRPPRLPRPRPRPADDPRP, the “shrunken log2 fold change” value was -0.088. For RRIRTRPPRLPRPRPRPHTFPRP, the “shrunken log2 fold change” value was -0.431. In the case of RRIRLRPPRLPRPRPRPGEIPRP, the “shrunken log2 fold change” value is reported as -0.141. With RRIRHRPPRLPRPRPRPSARPRP the “shrunken log2 fold change” value was -0.223. RRIRCRPPRLPRPRPRPLESPRP was tested, and the “shrunken log2 fold change” value was 0.0242. For RRIRARPPRLPRPRPRPHWSPRP, the “shrunken log2 fold change” value was -0.0356. RRIRCRPPRLPRPRPRPEYMPRP was tested, and the “shrunken log2 fold change” value was 0.0436. For RRIRNRPPRLPRPRPRPWEVPRP, the “shrunken log2 fold change” value was 0.00408. In the case of RRIRDRPPRLPRPRPRPEDQPRP, the “shrunken log2 fold change” value is reported as 0.0219. For RRIRARPPRLPRPRPRPPAFPRP, the “shrunken log2 fold change” value was 1.04. For RRIRRRPPRLPRPRPRPCVNPRP, the “shrunken log2 fold change” value was -0.0549. With RRIRFRPPRLPRPRPRPCQQPRP the “shrunken log2 fold change” value was 0.0307. For RRIRMRPPRLPRPRPRPRDSPRP, the “shrunken log2 fold change” value was 0.117. With RRIRARPPRLPRPRPRPRQNPRP the “shrunken log2 fold change” value was 0.723. With RRIRCRPPRLPRPRPRPSHQPRP the “shrunken log2 fold change” value was -1.04. RRIRLRPPRLPRPRPRPLCEPRP was tested, and the “shrunken log2 fold change” value was 0.0911. RRIRVRPPRLPRPRPRPESRPRP was tested, and the “shrunken log2 fold change” value was -0.0259. For RRIRCRPPRLPRPRPRPNVTPRP, the “shrunken log2 fold change” value was 0.632. In the case of RRIRPRPPRLPRPRPRPDDIPRP, the “shrunken log2 fold change” value is reported as -0.0962. In the case of RRIRMRPPRLPRPRPRPSVSPRP, the “shrunken log2 fold change” value is reported as -0.35. With RRIRKRPPRLPRPRPRPMRSPRP the “shrunken log2 fold change” value was 0.638. For RRIRWRPPRLPRPRPRPQRWPRP, the “shrunken log2 fold change” value was 0.308. In the case of RRIRNRPPRLPRPRPRPCCLPRP, the “shrunken log2 fold change” value is reported as -0.219. RRIRWRPPRLPRPRPRPFHIPRP was tested, and the “shrunken log2 fold change” value was -0.655. In the case of RRIRVRPPRLPRPRPRPPNNPRP, the “shrunken log2 fold change” value is reported as -0.233. RRIRRRPPRLPRPRPRPIKFPRP was tested, and the “shrunken log2 fold change” value was -0.202. With RRIRMRPPRLPRPRPRPEWWPRP the “shrunken log2 fold change” value was -0.00783. RRIRCRPPRLPRPRPRPECFPRP was tested, and the “shrunken log2 fold change” value was 0.165. With RRIRCRPPRLPRPRPRPSWQPRP the “shrunken log2 fold change” value was -0.0872. In the case of RRIRTRPPRLPRPRPRPYFNPRP, the “shrunken log2 fold change” value is reported as -1.03. For RRIRVRPPRLPRPRPRPVFLPRP, the “shrunken log2 fold change” value was -0.339. RRIRQRPPRLPRPRPRPHAGPRP was tested, and the “shrunken log2 fold change” value was -0.084.
